We go through one molecule from US20170067880A1 (Genentech, published 2017).

The target of test [1] is T1, MBP-SDS with C-terminal His tag, expressed in S. aureus (UniProt P0AEX9 27-396 = MBP).
T1 construct: mature; One of the small SD peptide constructs, expressed in S. aureus RN4220 delta sortase; not shown: C-terminal His tag
As to the kind of experiment: Western blot of MBP fusion constructs expressed in S. aureus. (In western blotting, separated proteins are transferred to a membrane and probed.)

In test [2] the target is T2, MBP-DSD with C-terminal His tag, expressed in S. aureus (UniProt P0AEX9 27-396 = MBP).
T2 construct: mature; One of the small SD peptide constructs, expressed in S. aureus RN4220 delta sortase; not shown: C-terminal His tag
The test is described as above.

Test [3] has as its target T3, MBP-SD with C-terminal His tag, expressed in S. aureus (UniProt P0AEX9 27-396 = MBP).
T3 construct: mature; One of the small SD peptide constructs, expressed in S. aureus RN4220 delta sortase; not shown: C-terminal His tag
The description is as above.

The target in test [4] is T4, E. coli expressed N-terminal Unizyme tagged SdrD, incubated with S. aureus lysate (Staphylococcus aureus (USA300), UniProt Q2FJ78 36-1347, modified by incubation with cleared lysate of delta-Pan Sdr mutant Newman S. aureus; modification not identified).
T4 construct: mature; Made in E. coli 58F3, purified, captured on NiNta resin, then incubated with S. aureus lysate for 1 hr at 37 C; also called E. coli expressed Sdr protein SdrD; not shown: N-terminal Unizyme tag (ST239 vector, Genentech)
T4 sequence (Q2FJ78 36-1347): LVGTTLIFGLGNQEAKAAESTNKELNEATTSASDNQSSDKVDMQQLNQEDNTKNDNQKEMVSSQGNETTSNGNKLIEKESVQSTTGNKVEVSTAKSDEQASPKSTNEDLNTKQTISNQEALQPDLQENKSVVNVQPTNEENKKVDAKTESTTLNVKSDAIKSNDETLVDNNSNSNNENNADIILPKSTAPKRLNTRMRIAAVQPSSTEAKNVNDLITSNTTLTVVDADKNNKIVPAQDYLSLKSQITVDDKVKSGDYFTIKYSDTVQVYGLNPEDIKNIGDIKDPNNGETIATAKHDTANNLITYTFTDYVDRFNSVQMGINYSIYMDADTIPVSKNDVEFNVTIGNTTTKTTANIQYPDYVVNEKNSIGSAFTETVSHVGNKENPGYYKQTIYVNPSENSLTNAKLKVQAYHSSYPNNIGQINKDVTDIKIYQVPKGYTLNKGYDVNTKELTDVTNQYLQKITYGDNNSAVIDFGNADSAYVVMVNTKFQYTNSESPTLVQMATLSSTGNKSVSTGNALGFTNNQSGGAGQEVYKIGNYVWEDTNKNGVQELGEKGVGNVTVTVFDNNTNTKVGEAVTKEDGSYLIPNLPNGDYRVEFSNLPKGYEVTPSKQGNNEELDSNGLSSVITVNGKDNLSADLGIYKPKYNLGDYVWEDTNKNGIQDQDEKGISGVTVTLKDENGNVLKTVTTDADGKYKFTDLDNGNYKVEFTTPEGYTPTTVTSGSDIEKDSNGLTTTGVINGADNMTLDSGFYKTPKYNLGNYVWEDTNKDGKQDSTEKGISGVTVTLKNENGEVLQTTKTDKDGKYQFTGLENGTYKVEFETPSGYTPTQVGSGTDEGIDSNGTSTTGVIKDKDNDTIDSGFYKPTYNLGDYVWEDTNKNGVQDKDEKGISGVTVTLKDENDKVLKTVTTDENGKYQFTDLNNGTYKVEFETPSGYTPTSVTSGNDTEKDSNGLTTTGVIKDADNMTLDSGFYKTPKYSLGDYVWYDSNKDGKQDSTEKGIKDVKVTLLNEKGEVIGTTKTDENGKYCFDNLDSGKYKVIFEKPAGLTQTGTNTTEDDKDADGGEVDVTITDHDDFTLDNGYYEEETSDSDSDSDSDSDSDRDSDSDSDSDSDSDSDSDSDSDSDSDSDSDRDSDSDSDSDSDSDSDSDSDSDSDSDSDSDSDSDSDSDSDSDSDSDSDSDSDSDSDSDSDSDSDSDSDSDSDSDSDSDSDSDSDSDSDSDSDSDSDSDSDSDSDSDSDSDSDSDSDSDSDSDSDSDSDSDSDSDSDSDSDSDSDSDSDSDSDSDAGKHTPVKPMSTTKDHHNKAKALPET
As to the kind of experiment: Western blot of NiNta-captured E. coli protein after incubation with S. aureus lysate.

In test [5] the target is T5, E. coli expressed N-terminal Unizyme tagged SdrC, incubated with S. aureus lysate (Staphylococcus aureus (USA300), UniProt Q2FJ79 51-913, modified by incubation with cleared lysate of delta-Pan Sdr mutant Newman S. aureus; modification not identified).
T5 construct: mature; Made in E. coli 58F3, purified, captured on NiNta resin, then incubated with S. aureus lysate for 1 hr at 37 C; also called E. coli expressed Sdr protein SdrC; not shown: N-terminal Unizyme tag (ST239 vector, Genentech)
T5 sequence (Q2FJ79 51-913): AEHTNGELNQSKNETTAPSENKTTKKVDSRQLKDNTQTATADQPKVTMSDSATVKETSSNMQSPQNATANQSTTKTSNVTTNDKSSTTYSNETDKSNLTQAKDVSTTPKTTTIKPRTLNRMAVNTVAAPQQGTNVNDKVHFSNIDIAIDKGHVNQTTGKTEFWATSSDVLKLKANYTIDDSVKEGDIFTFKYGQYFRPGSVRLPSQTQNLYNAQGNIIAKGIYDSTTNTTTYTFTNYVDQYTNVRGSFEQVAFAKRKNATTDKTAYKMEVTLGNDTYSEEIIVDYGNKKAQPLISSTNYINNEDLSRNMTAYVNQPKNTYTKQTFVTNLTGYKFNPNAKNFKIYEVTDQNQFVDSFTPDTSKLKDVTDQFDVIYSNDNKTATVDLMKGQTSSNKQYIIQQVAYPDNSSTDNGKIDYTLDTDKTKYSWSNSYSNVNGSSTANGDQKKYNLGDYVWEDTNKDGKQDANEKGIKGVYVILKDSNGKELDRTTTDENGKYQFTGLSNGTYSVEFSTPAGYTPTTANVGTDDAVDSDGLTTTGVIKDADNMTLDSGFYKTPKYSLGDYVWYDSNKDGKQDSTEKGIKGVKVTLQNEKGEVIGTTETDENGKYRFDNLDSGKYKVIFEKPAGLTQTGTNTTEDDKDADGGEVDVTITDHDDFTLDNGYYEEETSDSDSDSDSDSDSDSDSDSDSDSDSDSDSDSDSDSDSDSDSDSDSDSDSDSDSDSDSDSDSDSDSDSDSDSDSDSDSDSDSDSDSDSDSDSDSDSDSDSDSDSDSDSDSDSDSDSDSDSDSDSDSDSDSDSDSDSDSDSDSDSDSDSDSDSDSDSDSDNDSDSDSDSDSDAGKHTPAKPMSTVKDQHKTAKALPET
The description is as above.

For test [6], the target named is T6, E. coli expressed N-terminal Unizyme tagged SdrE, incubated with S. aureus lysate (Staphylococcus aureus (USA300), UniProt Q2FJ77 53-1120, modified by incubation with cleared lysate of delta-Pan Sdr mutant Newman S. aureus; modification not identified).
T6 construct: mature; Made in E. coli 58F3, purified, captured on NiNta resin, then incubated with S. aureus lysate for 1 hr at 37 C; also called E. coli expressed Sdr protein SdrE; not shown: N-terminal Unizyme tag (ST239 vector, Genentech)
T6 sequence (Q2FJ77 53-1120): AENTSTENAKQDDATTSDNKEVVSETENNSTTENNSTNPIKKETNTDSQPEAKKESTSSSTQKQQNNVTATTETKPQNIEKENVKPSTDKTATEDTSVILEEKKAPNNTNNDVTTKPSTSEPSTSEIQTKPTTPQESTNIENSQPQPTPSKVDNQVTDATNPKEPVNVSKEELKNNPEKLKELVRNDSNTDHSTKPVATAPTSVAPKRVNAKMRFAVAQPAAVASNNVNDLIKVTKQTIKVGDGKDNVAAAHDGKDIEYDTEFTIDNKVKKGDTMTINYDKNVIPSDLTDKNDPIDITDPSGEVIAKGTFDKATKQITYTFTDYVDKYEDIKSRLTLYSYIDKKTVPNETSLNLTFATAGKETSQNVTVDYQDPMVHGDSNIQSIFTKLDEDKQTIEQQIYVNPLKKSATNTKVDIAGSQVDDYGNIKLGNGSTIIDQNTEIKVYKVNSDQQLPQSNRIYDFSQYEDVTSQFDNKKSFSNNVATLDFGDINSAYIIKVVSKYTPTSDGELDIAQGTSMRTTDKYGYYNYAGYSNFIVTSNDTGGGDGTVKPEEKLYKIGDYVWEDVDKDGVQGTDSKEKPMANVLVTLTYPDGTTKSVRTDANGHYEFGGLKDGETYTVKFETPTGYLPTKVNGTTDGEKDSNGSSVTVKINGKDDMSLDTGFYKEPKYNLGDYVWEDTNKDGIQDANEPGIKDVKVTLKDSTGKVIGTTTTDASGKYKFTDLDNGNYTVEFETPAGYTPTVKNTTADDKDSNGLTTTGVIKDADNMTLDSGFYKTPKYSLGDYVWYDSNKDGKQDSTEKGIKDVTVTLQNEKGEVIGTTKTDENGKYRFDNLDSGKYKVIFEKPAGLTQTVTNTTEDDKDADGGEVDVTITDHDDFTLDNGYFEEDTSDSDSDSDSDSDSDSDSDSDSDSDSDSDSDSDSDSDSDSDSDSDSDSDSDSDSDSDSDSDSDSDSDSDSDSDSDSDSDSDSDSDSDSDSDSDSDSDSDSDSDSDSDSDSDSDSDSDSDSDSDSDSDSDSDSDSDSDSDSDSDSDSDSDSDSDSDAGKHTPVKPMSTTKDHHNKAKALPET
The description is as above.

B1: antibody F1 (antibody, V domains shown)
VH: EVQLLESGGGLVQPGGSLRLSCAASGFTLSRFAMSWVRQAPGRGLEWVASINNGNNPYYARSVQYRFTVSRDVSQNTVSLQMNNLRAEDSATYFCAKDHPSSGWPTFDSWGPGTLVTVSS
VL: DIQLTQSPSALPASVGDRVSITCRASENVGDWLAWYRQKPGKAPNLLIYKTSILESGVPSRFSGSGSGTEFTLTISSLQPDDFATYYCQHYIRFPYTFGQGTKLEIKR
notes: also called rF1; recombinant F1
With B1, the binding result in test [1] is on record as “no binding”; in test [2], “no binding”; in test [3], “no binding”; in test [4] it was “binds”; in test [5], “binds”; in test [6] it was “binds”.
